Experimental findings from publication PMC8211771 are described below.

Substrate in the data set: O=[N+]([O-])c1ccc(O[C@@H]2O[C@H](CO)[C@H](O)[C@H](O)[C@H]2O)cc1
Nature of the data set: purified protein. To be noted: 100 mM phosphate-based buffer, 5 μM protein.

The mark [1] stands for this setting: pH 8.4, 20 °C (room temperature), Figure 6 legend gives 0.052 mM (±0.007), pH 8.4.
The mark [2] stands for this setting: pH 8.0, 20 °C (room temperature), Figure 6 legend gives 0.047 mM (±0.005), pH 8.0.
[3] abbreviates: pH 8.0, 20 °C (room temperature), Figure 6 legend gives 0.13 mM (±0.010), pH 8.0.
Setting [4] is: pH 8.0, 20 °C (room temperature), Figure 6 legend gives 0.07 mM (±0.012), pH 8.0.

B1: BT3158 (Bacteroides thetaiotaomicron VPI-5482) (protein)
chain: CEDVETHKPYGDGSGHAPGTVQVTSYEQIPGGVTLKFIAPTDEDLLYIKIKYTLDNGKEMEARASLYTDETTIEGFGNTNPKKLVISAVNKMEKEGEAIITEIVPGKPAYLTAIEEIEVNPTFGGIYIHTTNGGRNYLIFDVSTKDSKGNWNIEHTEYTSVKNIGFTLRGFSAEPHDFKVRVRDLYDNQSEEYLTTLTPLYEEKLDLTKFKTFYLANDIKMDNAGHTLESLFNGDHGLNSWNYAHGYDFNPSEFPVWFTFDMGQTAQLSRFTSWQRSMGGSYYYRAGAIKEWEVWGRSDLPSSDGSWDGWTKLADCESIKPSGWPTGSNSEEDITYASKGEEFEFLADIPPVRYIRFKILSTHDGAGLVVMQQLWFYGTPIQ
The kcat is the maximal rate divided by the concentration of active sites. The kcat/Km is the second-order rate constant that governs catalysis at low substrate concentration. Take B1: under setting [1], the kcat stood at 1.21 s⁻¹ and the kcat/Km was found to be 23300 M⁻¹ s⁻¹.

B2: BT2857C (Bacteroides thetaiotaomicron VPI-5482) (protein)
chain: ELDKTKFREMYLQNDSRVDSYDGKMEYVWNGRISKDGDSGGVGLHTGTGTKDGPAVFTFDLGVLAKLSRFALWAIQDEKHFYNDMSPRRYEVWGCATEPNPDGSWDQWVKLLDMENVKPSGSPIGILTEDDIEAAKIGDQANVPLDMPRVRYIRIKCLKNWSNNYNICFTELTFWGND
As to B2, under setting [2], the kcat was 0.011 s⁻¹ and the kcat/Km came to 234 M⁻¹ s⁻¹.

B3: BT2857 (Bacteroides thetaiotaomicron VPI-5482) (protein)
chain: CAEDMVKPIENDKDAPGTVQDVKTESLPGAVKFTYTLPSDPDLLYVLAKYTNKTGKVMEFRSSFYTNSVTVEGFGDTDTYKVELYTVDRSENRSQPQIVEVVPLTPPILSCYESLSMVSDFGGMTFEMDNKFKSDLAIYVCTPDELGDMVLAETFYSAREEIVYSVRGYDAVPRRFGIFLQDKYGNETDTLFTELTPIYERELDKTKFREMYLQNDSRVDSYDGKMEYVWNGRISKDGDSGGVGLHTGTGTKDGPAVFTFDLGVLAKLSRFALWAIQDEKHFYNDMSPRRYEVWGCATEPNPDGSWDQWVKLLDMENVKPSGSPIGILTEDDIEAAKIGDQANVPLDMPRVRYIRIKCLKNWSNNYNICFTELTFWGNDNEE
B3: under setting [3], the kcat was 0.046 s⁻¹ and the kcat/Km is 354 M⁻¹ s⁻¹.

B4: BT2857N (Bacteroides thetaiotaomicron VPI-5482) (protein)
chain: CAEDMVKPIENDKDAPGTVQDVKTESLPGAVKFTYTLPSDPDLLYVLAKYTNKTGKVMEFRSSFYTNSVTVEGFGDTDTYKVELYTVDRSENRSQPQIVEVVPLTPPILSCYESLSMVSDFGGMTFEMDNKFKSDLAIYVCTPDELGDMVLAETFYSAREEIVYSVRGYDAVPRRFGIFLQDKYGNETDTLFTELTPIYERELDKT
With B4, under setting [4], the kcat stood at 0.046 s⁻¹ and the kcat/Km turned out to be 657 M⁻¹ s⁻¹.
